Source: US20230026627A1, “Compositions and Methods of Manufacturing Star Polymers for Ligand Display and/or Drug Delivery” (Vaccitech North America, Inc., priority 2019, published 2023)

Experiments:
[1] = Hydrodynamic radius (Rh), dynamic light scattering; assay type: physicochemical; details: Table 5
[2] = Turbidity (OD at 490 nm) / aggregation in aqueous buffer (PBS); assay type: physicochemical; details: turbidity (OD at 490 nm) >0.05 indicates aggregating
Text: Soluble: Capable of becoming molecularly or ionically dispersed in a solvent to form a homogeneous solution. […] Solubility can be determined by visual inspection, by turbidity measurements or by dynamic light scattering.
It was unknown a priori what composition and magnitude of charge would be needed to fully solubilize polymer arms with high densities of amphiphilic or hydrophobic drug (D) molecules. Therefore, we attached high densities (˜10 mol %) of the small molecule aromatic heterocycle, 2BXy, which is a TLR-7/8a, to ˜40 kDa HPMA-based polymer arms (A) through a reactive monomer (E), wherein the polymer arm (A) comprised HPMA monomers as the majority hydrophilic monomer (B) and optionally included either 10 or 20 mol % charged monomers (C) comprising either negatively or positively charged functional groups.

Row | Substance | Size, Rh (nm) [1] | Turbidity, pH 7.4 ([2]; Table 5, di-block architecture) | Turbidity, pH 7.4 ([2]; Table 4, charged monomers, ~10 mol % TLR-7/8a)
1 | N3-poly[(HPMA-co-Ma-b-Ala-2BXy)-b-HPMA]-Pg [Compound 62] | 6.6 nm | 0.039 | 
2 | PAMAM-g-poly[(HPMA-co-Ma-b-Ala-2BXy)-b-HPMA]-Pg [Compound 78] | 12.9 nm | 0.041 | 
3 | N3-poly(HPMA-co-Ma-b-Ala-2BXy-co-Ma-b-Ala-COOH)-Pg [Compound 48] |  |  | 0.043
4 | N3-poly(HPMA-co-Ma-b-Ala-2BXy)-Pg [Compound 46] | >1000 nm | Aggregate | 
